The values below come from US20220324960A1 (KINDRED BIOSCIENCES, published 2022).

The test has as its target T1, Canine IL31 (canine).
T1 chain: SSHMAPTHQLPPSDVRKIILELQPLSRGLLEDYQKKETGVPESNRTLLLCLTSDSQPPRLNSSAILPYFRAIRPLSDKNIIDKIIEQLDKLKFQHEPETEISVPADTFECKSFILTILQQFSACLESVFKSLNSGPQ
As to the kind of experiment: SPR, BIAcore 8K, Protein A sensor chip. As to the method:
Chimeric antibodies composed of different combinations of cmVH1, cmVH2, or cmVH3 fused to human IgG1 heavy chain and cmVL1, cmVL2, and cmVL3 fused to human kappa constant light chain were generated. Caninized VH of M14 (SEQ ID NO: 3) fused to human IgG1 heavy chain and caninized VL of M14 (SEQ ID NO: 4) fused to human kappa constant light chain was also generated. Affinity of canine IL31 to the different chimeric antibodies was measured using a BIAcore 8K, as described in Table 3 below: […]

B1: Caninized VH-VL M14 chimeric antibody (caninized VH of M14 fused to human IgG1 heavy chain and caninized VL of M14 fused to human kappa constant light chain) (antibody, V domains shown)
VH: EVQLVESGPSLVKPGGSLRLTCSVTGDSITSGYWNWIRKFPGNKLEYMGYISYSGITDYNPSLKSRITISRDTSKNQYYLQLNSVTTEDTATYYCARYGNYGYAMDYWGQGTSVTVSS
VL: DIVMTQSPASLSVSLGQRATISCRASESVDTYGNSFMHWYQQKPGQSPKLLIYRASNLESGIPARFGGSGSGTDFTLTIDPVQADDVATYYCQQSYEDPWTFGGGTKLEIK
notes: Chimeric: VH fused to human IgG1 heavy chain, VL fused to human kappa constant light chain; also called analyte 1; caninized VH-VL M14 antibody control
With B1, the Kd came to 2.18 nM, the koff was found to be 0.000523 s⁻¹ and the kon turned out to be 240000 M⁻¹ s⁻¹.

B2: cmVH1 + cmVL1 chimeric antibody (antibody, human IgG1, V domains shown)
VH: EVQLVESGPSLVKPGGSLRLTCSVTGDSITSGYWKWIRKFPGNKLEYMGYISYSGITDYNPSLKSRITISRDTSKNQYYLQLNSVTTEDTATYYCARYGNYGYAMDYWGQGTSVTVSS
VL: DIVMTQSPASLSVSLGQRATISCRASESVDTYGRSFMHWYQQKPGQSPKLLIYRASNLESGIPARFGGSGSGTDFTLTIDPVQADDVATYYCQQSYEDPWTFGGGTKLEIK
notes: also called analyte 2
In the case of B2, the Kd amounted to 0.8 nM, the koff stood at 0.000182 s⁻¹ and the kon amounted to 228000 M⁻¹ s⁻¹.

B3: cmVH3 + cmVL3 chimeric antibody (antibody, human IgG1, V domains shown)
VH: EVQLVESGPSLVKPGGSLRLTCSVTGDSITSGYWKWIRKFPGNKLEYMGYISYSGITDYNPSLKSRITISRDTSKNQYYLQLNSVTTEDTATYYCARYANYGYAMDYWGQGTSVTVSS
VL: DIVMTQSPASLSVSLGQRATISCRASESVDTYGRSFMHWYQQKPGQSPKLLIYRASNLESGIPARFGGSGSGTDFTLTIDPVQADDVATYYCHQSYEDPWTFGGGTKLEIK
notes: also called analyte 6
Regarding B3, the Kd turned out to be 0.858 nM, the koff is 0.000185 s⁻¹ and the kon was 216000 M⁻¹ s⁻¹.

B4: cmVH2 + cmVL3 chimeric antibody (antibody, human IgG1, V domains shown)
VH: EVQLVESGPSLVKPGGSLRLTCSVTGDSITSGYWKWIRKFPGNKLEYMGYISYSGITDYNPSLKSRITISRDTSKNQYYLQLNSVTTEDTATYYCARYPNYGYAMDYWGQGTSVTVSS
VL: DIVMTQSPASLSVSLGQRATISCRASESVDTYGRSFMHWYQQKPGQSPKLLIYRASNLESGIPARFGGSGSGTDFTLTIDPVQADDVATYYCHQSYEDPWTFGGGTKLEIK
notes: also called analyte 4
For the molecule B4, the dissociation constant Kd is 0.868 nM, the koff turned out to be 0.000162 s⁻¹ and the on-rate constant (kon) was 186000 M⁻¹ s⁻¹.

B5: cmVH2 + cmVL2 chimeric antibody (antibody, human IgG1, V domains shown)
VH: EVQLVESGPSLVKPGGSLRLTCSVTGDSITSGYWKWIRKFPGNKLEYMGYISYSGITDYNPSLKSRITISRDTSKNQYYLQLNSVTTEDTATYYCARYPNYGYAMDYWGQGTSVTVSS
VL: DIVMTQSPASLSVSLGQRATISCRASESVDTYGRSFMHWYQQKPGQSPKLLIYRASNLESGIPARFGGSGSGTDFTLTIDPVQADDVATYYCYQSYEDPWTFGGGTKLEIK
notes: also called analyte 3
On to B5, for which the Kd was 0.914 nM, the koff was determined as 0.000159 s⁻¹ and the kon was determined as 174000 M⁻¹ s⁻¹.

B6: cmVH3 + cmVL2 chimeric antibody (antibody, human IgG1, V domains shown)
VH: EVQLVESGPSLVKPGGSLRLTCSVTGDSITSGYWKWIRKFPGNKLEYMGYISYSGITDYNPSLKSRITISRDTSKNQYYLQLNSVTTEDTATYYCARYANYGYAMDYWGQGTSVTVSS
VL: DIVMTQSPASLSVSLGQRATISCRASESVDTYGRSFMHWYQQKPGQSPKLLIYRASNLESGIPARFGGSGSGTDFTLTIDPVQADDVATYYCYQSYEDPWTFGGGTKLEIK
notes: also called analyte 5
B6: the Kd was 0.9 nM, the koff was 0.000168 s⁻¹ and the kon came to 187000 M⁻¹ s⁻¹.
